Test results: US20150307603A1 (MODIQUEST B V, published 2015)
Non-standard residues stand in square brackets, D forms with d. No end group written: not given here. Cit = NC(=O)NCCC[C@H](N)C(=O)O

How the values were obtained:
msVim XS/XL = target: T1, msVim XS/XL (mouse, also: biotin-labelled); assay: ELISA, Ab 0.0032 ug/well
T1 construct: also called mouse vimentin peptide
T1 peptide: YVT[Cit]SSAV[Cit]L[Cit]SSVP
Method: (§1) Biotin and citrulline-containing peptides derived from fibrinogen and vimentin were immobilized on NEUTRAVIDIN®-coated 96-well ELISA plates (0.3 μg/well). CFC-1 and CFC-0 were coated at the same concentration and served as positive and negative controls, respectively, for specific anti-citrulline reactivity and as coating controls. Non-coated wells were used to test for aspecific binding of the antibodies. […] Detection of bound anti-citrulline antibodies was performed by incubating the wells with rabbit anti-human HRP (1:2000) for 1 hour at RT followed by incubation with TMB substrate. The resulting OD (y-axis) is a measure for antibody binding.
(§2) Biotin-labeled and citrulline-containing fibrinogen and vimentin peptides (Table 5) were also tested for reactivity with the therapeutic antibodies. Peptides were coated on 96-well NEUTRAVIDIN®-ELISA plates.

huFibα XH = target: T2, huFibα XH (human, X at position 15 = citrulline; biotin-labelled); assay: ELISA, Ab 0.0032 ug/well
T2 peptide: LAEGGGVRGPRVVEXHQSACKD
Method: as §1, §2

CFC-1 [1] = target: T3, CFC-1; assay: ELISA, Ab 0.0032 ug/well
T3 construct: Positive control for anti-citrulline reactivity; also called cfc1 XG; Cfc1-peptide
Method: as §1, §2

msFibα XH = target: T4, msFibα XH (mouse, X at position 15 = citrulline; biotin-labelled); assay: ELISA, Ab 0.0032 ug/well
T4 peptide: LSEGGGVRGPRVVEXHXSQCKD
Method: as §1, §2

msFibβ XG [2] = target: T5, msFibβ XG (mouse, also: biotin-labelled); assay: ELISA, Ab 0.0032 ug/well
T5 construct: also called mouse fibrinogen β peptide
T5 peptide: EPTDSLDA[Cit]GHRPVDRR
Method: as §1, §2

msFibα XG [3] = target: T6, msFibα XG (mouse, X at position 8 = citrulline; biotin-labelled); assay: ELISA, Ab 0.0032 ug/well
T6 peptide: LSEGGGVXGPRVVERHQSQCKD
Method: as §1, §2

huFibα XG = target: T7, huFibα XG (human, X at position 8 = citrulline; biotin-labelled); assay: ELISA, Ab 0.0032 ug/well
T7 peptide: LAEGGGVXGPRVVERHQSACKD
Method: as §1, §2

[4] = target: human recombinant histone 4 (human, UniProt P62805 2-103); assay: ELISA, Ab 0.000128 ug/well
Source text: (§3) The resulting OD (y-axis) is a measure for antibody binding. H1-recombinant histone 1; H1/p2-huPAD2 recombinant histone 1; H1/p4-huPAD4 recombinant histone 1, and so forth (x-axis).

[5] = target: T8, huPAD2-deiminated human recombinant histone 2B (human); assay: ELISA, Ab 0.000128 ug/well
T8 construct: also called H2B/p2
Source text: as §3

[6] = target: T9, human recombinant histone 2B (human); assay: ELISA, Ab 0.000128 ug/well
T9 construct: Non-deiminated; also called H2B
Source text: as §3

[7] = target: T10, huPAD4-deiminated human recombinant histone 3 (human); assay: ELISA, Ab 0.000128 ug/well
T10 construct: also called H3/p4
Source text: as §3

[8] = target: T11, huPAD2-deiminated human recombinant histone 3 (human); assay: ELISA, Ab 0.000128 ug/well
T11 construct: also called H3/p2; histone 3/p2
Source text: as §3

[9] = target: T12, huPAD2-deiminated human recombinant histone 2A (human); assay: ELISA, Ab 0.000128 ug/well
T12 construct: also called H2A/p2; histone 2A/p2
Source text: as §3

msFibβ XG [10] = target: T5, msFibβ XG; assay: ELISA, Ab 0.00064 ug/well
Method: as §1, §2

msFibα XG [11] = target: T6, msFibα XG; assay: ELISA, Ab 0.00064 ug/well
Method: as §1, §2

[12] = target: T13, peptide no. 8 (human histone 2A) (human, also: biotin-labelled); assay: ELISA, Ab 0.08 ug/well
T13 construct: also called peptide 8
T13 peptide: AGNAA[Cit]DNKKTR
Method: as §1, with “histone 2A” for “fibrinogen and vimentin”

[13] = target: T14, peptide no. 9 (human histone 2A) (human, also: biotin-labelled); assay: ELISA, Ab 0.08 ug/well
T14 construct: also called peptide 9
T14 peptide: DNKKT[Cit]IIPRHL
Method: as §1, with “histone 2A” for “fibrinogen and vimentin”

[14] = target: T15, peptide no. 3 (human histone 2A) (human, also: biotin-labelled); assay: ELISA, Ab 0.08 ug/well
T15 construct: also called peptide 3
T15 peptide: KSRSS[Cit]AGLQFP
Method: as §1, with “histone 2A” for “fibrinogen and vimentin”

CFC-1 [15] = target: T3, CFC-1; assay: ELISA, Ab 0.08 ug/well
Method: as §1, with “histone 2A” for “fibrinogen and vimentin”

[16] = target: T16, peptide no. 4 (human histone 2A) (human, also: biotin-labelled); assay: ELISA, Ab 0.08 ug/well
T16 construct: also called peptide 4
T16 peptide: QFPVG[Cit]VHRLLR
Method: as §1, with “histone 2A” for “fibrinogen and vimentin”

[17] = target: T17, peptide no. 12 (human histone 2A) (human, also: biotin-labelled); assay: ELISA, Ab 0.08 ug/well
T17 construct: also called peptide 12
T17 peptide: NKLLG[Cit]VTIAQG
Method: as §1, with “histone 2A” for “fibrinogen and vimentin”

[18] = target: T18, peptide no. 11 (human histone 2A) (human, also: biotin-labelled); assay: ELISA, Ab 0.08 ug/well
T18 construct: also called peptide 11
T18 peptide: LQLAI[Cit]NDEELN
Method: as §1, with “histone 2A” for “fibrinogen and vimentin”

[19] = target: T19, peptide no. 5 (human histone 2A) (human, also: biotin-labelled); assay: ELISA, Ab 0.08 ug/well
T19 construct: also called peptide 5
T19 peptide: VGRVH[Cit]LLRKGN
Method: as §1, with “histone 2A” for “fibrinogen and vimentin”

[20] = target: T20, peptide no. 1 (human histone 2A) (human, also: biotin-labelled); assay: ELISA, Ab 0.08 ug/well
T20 construct: also called peptide 1; AAASGXGKQGGK
T20 peptide: AAASG[Cit]GKQGGK
Method: as §1, with “histone 2A” for “fibrinogen and vimentin”

[21] = target: T21, peptide no. 6 (human histone 2A) (human, also: biotin-labelled); assay: ELISA, Ab 0.08 ug/well
T21 construct: also called peptide 6
T21 peptide: VHRLL[Cit]KGNYSE
Method: as §1, with “histone 2A” for “fibrinogen and vimentin”

[22] = target: T22, peptide no. 2 (human histone 2A) (human, also: biotin-labelled); assay: ELISA, Ab 0.08 ug/well
T22 construct: also called peptide 2
T22 peptide: AKAKS[Cit]SSRAGL
Method: as §1, with “histone 2A” for “fibrinogen and vimentin”

B1: RhmAb2.102 (antibody, human IgG1, lambda)
heavy: not shown
light: QSVLTQPPSMSAAPGQKVTISCSGSSSNIGNNYVSWYQQVPGTAPKLLIYDDNKRPSGIPGRFSGSKSATSATLGITGLQAGDEADYYCGSWDDNLSVVLFGGGTKLTVLGQPKAAPSVTLFPPSSEELQANKATLVCLISDFYPGAVTVAWKADSSPVKAGVETTTPSKQSNNKYAASSYLSLTPEQWKSHRSYSCQVTHEGSTVEKTVAPTECS
notes: Human IgG1 lambda; also called Rhm2.102
**Q.** B1 was tested. Which OD (msVim XS/XL) did it give?
**A.** Its OD is 0.142 OD450.

**Q.** And the OD (huFibα XH)?
**A.** The OD was 0.123 OD450.

**Q.** What about the OD (CFC-1 [1]) of the same binder?
**A.** Its OD is 0.506 OD450.

**Q.** What about the OD (msFibα XH) of the same binder?
**A.** The OD was 0.085 OD450.

**Q.** And the OD (msFibβ XG [2])?
**A.** Its OD is 0.12 OD450.

**Q.** What about the OD (msFibα XG [3]) of the same binder?
**A.** Its OD is 0.125 OD450.

**Q.** And the OD (huFibα XG)?
**A.** The OD was 0.125 OD450.

**Q.** What about the OD [4] of the same binder?
**A.** The OD was 0.06 OD450.

**Q.** And the OD [5]?
**A.** The OD was 0.051 OD450.

**Q.** And the OD [6]?
**A.** Its OD is 0.052 OD450.

**Q.** What about the OD [7] of the same binder?
**A.** The OD was 0.06 OD450.

**Q.** What about the OD [8] of the same binder?
**A.** Its OD is 0.066 OD450.

**Q.** And the OD [9]?
**A.** The OD was 0.063 OD450.

**Q.** What about the OD (msFibβ XG [10]) of the same binder?
**A.** The OD was 0.133 OD450.

**Q.** And the OD (msFibα XG [11])?
**A.** The OD was 0.116 OD450.

**Q.** What about the OD [12] of the same binder?
**A.** The OD was 0.06 OD450.

**Q.** And the OD [13]?
**A.** The OD was 0.06 OD450.

**Q.** And the OD [14]?
**A.** Its OD is 0.091 OD450.

**Q.** What about the OD (CFC-1 [15]) of the same binder?
**A.** The OD was 2.66 OD450.

**Q.** What about the OD [16] of the same binder?
**A.** Its OD is 0.192 OD450.

**Q.** What about the OD [17] of the same binder?
**A.** Its OD is 0.06 OD450.

**Q.** What about the OD [18] of the same binder?
**A.** Its OD is 0.064 OD450.

**Q.** What about the OD [19] of the same binder?
**A.** The OD was 0.066 OD450.

**Q.** What about the OD [20] of the same binder?
**A.** The OD was 2.04 OD450.

**Q.** What about the OD [21] of the same binder?
**A.** The OD was 0.123 OD450.

**Q.** What about the OD [22] of the same binder?
**A.** The OD was 0.086 OD450.
